Source: the DeepSol protein solubility set

Assay: soluble on expression in E. coli; label from the status in PepcDB or PDB records

| Sequence | soluble on expression in E. coli |
| --- | --- |
| MSLQASEQVPSIQIGEPGVTVEAGDHICAFYPTLAERDEILLPYLSEGMLAGEKCIAVLDTDDLDGIRQAVSGQGLPSPKDGNQLELRRSRNAYLANGSFETEAMLKFWEDHVGAAVAEGFPFARVAGEMTWALSNLPGVDQLVGYEAKLNRLLPRYPQVVLCLYELERFDGEVLVDVLKTHPKVLLGGMVLDNPYYLEPEEFLASREGHHHHHH | soluble |
| MAHHHHHHMAKLSKQQKKQMYIEKLSSLIQQYSKILIVHVDNVGSNQMASVRKSLRGKATILMGKNTRIRTALKKNLQAVPQIEKLLPLVKLNMGFVFCKDDLSEIRNIILDNKSPAPARLGVIAPIDVFIPPGPTGMDPSHTSFFQSLGISTKIVKGQIEIQEHVHLIKQGEKVTASSATLLQKFNMKPFSYGVDVRTVYDDGVIYDAKVLDITDEDILEKFSKGVSNVAALSRATGVITEASYPHVFVEAFKNIVALIIDSDYTFPLMENIKKMVENPEAFAAVAAPASAAKADEPKKEEAKKVEEEEEEEEDGFMGFGMFD | not soluble |
| MGGVMSYFRGLFGAREMRILILGLDGAGKTTILYRLQVGEVVTTIPTIGFNVEQVEYKNLKFQVWDLGGQTSIRPYWRCYYANTDAIIYVVDSADRDRVGISRQELATMLQEDELQGAVLAVLANKQDIAGCLTETEVYKALGLDALRNRTIQIFKTSASKGEGLDPAMDWLANQLQQKK | not soluble |
| MDALVANYASDSDSDGDAPAATAGEAAPVPPEPSALLPPPPLDLLQPPNFVDCSTMAQGSRVRSFPHVEGNYALHVYIPVVIPSDAKKHLVLVMRRAASFVPDLYAIDADYALSELCKDEQKLEKVLLSREFHVSLGRTVAIQVHQIESLVAMLRQKFRSQQRYWMDFNKWEHFVNDDCTRSFLSLEVTSTGLPEISKQITMVDDVYRLHGLPEFYKNPRPHISLAWALGDVSCKLKQAIKEIEKSQSSLGTSQISNLRCKFSHVVCKIGKKVYDICKLAD | not soluble |
| MRQRKDMPHNRLQTGGMTDEPTDIKAEAKPARTSDLRGFIRLLEERGQLRRIRQPVSLVHEITEIHRRVLADGGPALLFEQPVDHEGKVRKMPLLANLFGTRQRIEWGLGLETGGLPALGQKLTELREPRPPKSMAEAWSKLPLLRAALSMRQRNVSRAPVQEKVLTRDAVDLARLPVQWCWPGEPAPLITWPLVITRSPDDPDDINVGIYRMQVLGPDRVIMRWLAHRGGAHHHRLWQARGLDMPVTVAIGADPATILAAVMPLPDHISELGFSGLLRGAKSRIAKALTVPMPVPANAEIVLEGTVSATETAMEGPYGDHTGYYNSVEAFPVMTLSAITMRRDPIYLSTYTGRPPDEPSVLGEAMLEIFLPLVKRQFAEIVDLWMPPEACSYRVMVASIDKRYPGQAKRVMMGLWSMLPQFSYVKLIILVDPDIDVRSWTDVVWALSTRFDASRDTTIINDTPIDYLDFASPKAGLGGKMGLDATRKLPPETEREWGRVLSMTPDVVAKVDLVWRDLGLGERPVDKLAAALEHHHHHH | not soluble |
| MEDNRVEEDGEVKSDVGTSSDEKASDSEVEKRQRTDSERSGKDKKKKHKKEKKHKKDKKHKKEKKHKREKEVEMENDGPPAKKRTLEEVDTKKDESKKKEAKESSRNNEDELRNPPRRERSKSAERRDRELRERRDAERRDRSLSKERRLIQRKREDNRRDPRAHEGNRRRDRTPERFRNNRDRRDRDGRREDRHRRSPDRRRDSDRKREDGKRKDESKDVEWNLDSDSDDEQKKIEAARKRRIQIIKKIEGHTEENTPRDSSTPRSDTIGDKKTDESEDSSSDSEDDEDDRKLAEAKDLIKSTRFGSEQGSGASTPVSIQSDNDTPTDFFSGLRDKMVHMKDADEHNVDEVLQRGKDEEYREDWHTQLKEQEKREEEEKKKKLEAEAAAEAAKKKKQEEDDTGFDMFADNEELPQDSTTIDGHSGAVHDTLKDNWDDVEGYYRVRIGELLDTRYRVVGFTGAGVFGNVCRCNDQTKGNTVAVKIIRNNEVMYKTGLRELEVLRKLNEADKEDKYHCLRLFRTFKHHNHLCLVFENLSMNLRELLKKYGQKDGLHLKAVRSYAQQLLLALRLLKKLEFVHADIKPDNILVNESKLTLKLCDFGSAGRVNEQELAPYLVSRFYRAPEIMLGVRHDYAIDLWSVAVTLYEVYTGKIMFPGRTNNHMLKLFTDVKGKYPNKLVRKSQFKDTHFDVNCNLLYQEVDKVTERNKITVLANLKPTRDLESELIAGQRLSRDQMDQIQAFRTLLDGMLILDPSKRTTCNEALKHPFFTIPIK | soluble |
| MPKSLSLQDVQLRFSSKFPDKTVLKFTKNYEPVTIQCPLHGSVVYGNLQAAMKSSTGCPECTRNPEKPSPNAVAIRLEDTETGEIYEFASTLAASKFIGCSNSTLAVRLSGRTPFDRLIRYRYRLVK | not soluble |
| HGYVESPASRAYQCKLQLNTQCGSVQAEPQSVEGLKGFPQAGPADGHIASADKSTFFELDQQTPTRWNKLNLKTGPNSFTWKLTARHSTTSWRYFITKPNWDASQPLTRASFDLTPFCQFNDGGAIPAAQVTHQCNIPADRSGSHVILAVWDIADTANAFYQAIDVNLSK | soluble |
| MEERPSETNSNVDSSAQPSVAQLAGRFREHAAVARETPASKPTRRKPPCSLPLFPPKVELGQNGEEKSPSGASHPPKIKVKSSPLIEKLQANLAFDPAALLPGASPKSPGLKAIISPFHSPPSTPSSPGIRSHPSEAEEVPVSFDQPPEGTHLPSYNKVRTRGSIKRRPPSRRFRRSQSDCGDFRDYRAVEPSQENGAREENGDDVFPSKSKDPGSPQLNQEAMADGVEGTPRSAEKPRRRNTCNSTEKPEELVRTPEEANAGEKVGQNPDTASQGHPEVQAPSQTGSPEAENGCGSPREETAPGEHTDTGKATEGTASEERVADEDRLGQKSPDANMPEEEGVVREKAPQTSSGKAEGTTIAEPDTKQKEEAPLEPSCSPGADHAAGEITSEIQNEKAVSMDDIPIEDTRM | not soluble |
| MSLDEDAQISAVQDGFINFYADDAVTPYVALAARGPWVITLKGAVLYDAGGYGMLGFGHTPEAVLDAMARPQVMANVMTPSLAQRKLDRALRAEIGHTRGGCPFARFMCLNSGSEAVGLAARIVDTNAKLHTDPGARHAGATIKRLVVKGSFHGRTDRPGLYSDSSRKTYSKYLASYRDEDSVIAIAPYDIAALQRAFDEAARNHWFIEAVFLEPVMGEGDPGRALPAEFYAAARTLTRNHGSLLLVDSIQAGLRAHGVLSVVDYPGFEQLDPPDLETYSKALNAAQYPLSVLAVTEQAAQVYRKGTYGNTMTTNPRALDVACATLALFTPQIRDNIRLRGAQALRKLEALQAELGGLITKVQGTGLLFSCELAPQYKCYGAGSTEEWLRHHGVNVIHGGENSLRFTPHFGMDEAELDLLVGLIAKALKEGPRQAQAEAEGHHHHHH | not soluble |
| MSLNADKFRKIDAHSHIQVLGYPFNVSITPEEFLSLMEAYNIEIAIISDVNNDNIAKIVKEYPDKLVGIYWPNPRDEKSINETEKFLEKYEFRGIKLHPLLNMFSPSDPRVEKIMKIAEEFNVHVQIHSGHPPTSLPWQIEELARKFPEVKIVMVHMGHGNAYYIQGAIEIAGRNENIYLETSGMPMPSKIAEAYEVAPRRVVFGIDLPCHHPVVEIAKVLISGLNEKGMKRVFYENAKVLLEGHHHHHH | not soluble |
| MHIEFRHLRTIKAIHDCGGLARAADQLNITQSALSHQIKGLEDQAGVELFVRRSKPMKLSAAGMRLLRLAEQILPQVEAMQAEFSSLRDGRSGRMHIAIECHACFEWLFPVLEAFRKNWPDVDVDIRPGLAFDALPALQKEEVDLVVSSDPEEIAGVEFVELFDYNAVFVAASTHPLAAKPWVEAEDFRGETLITYPVERTRLDVFSQLLIPARVEPAQVRQVELTAVILLLVASNRGVSVLPDWVVREVKYSSDYVTRPLTETGITRRLYAAVRSEDLEKPFVQELVTLARSEARKLQSR | not soluble |
| MLPNNQWQIPINNGLTHQENMAAHAAVMKLRVHDLQSIISQLSLRKPRPQKSEHQKVVVESLRDPHHARQIYQMVISLIFSSLQASNFPNGNYEMQKRPATTSQVRSHPYVLPSRSGASNHLVNHHYQQQQQQQPQPHNLLHQQMMASHHSHLQQQHHPSTVRWLTPELLEEQLRGSMRYGAPAAAAATNAPLHSSFPNHGRSSQQSLQKSEKSNRPKKMYADNFEPLPLPFYDVISVLLKPVELHSSDSPTLKQTKQLQFPFLLTAEHISKISYRADVTPLPRYELQLRFFNLTEPVQGPQKDDFPLNCYARVDDSVVQLPNVIPTNKTNAEPKRPSRPVNITSNMNRYKKEHTVAVEWLADKRVWAAGVYFVHRVNSDILFKRLNQNVSRHRSLEVTKQEVIKKLSGGEDDIAMDRLNISLLDPLCKTRMTTPSRCQDCTHLQCFDLLSYLMMNEKKPTWQCPVCSSNCPYDRLIVDDYFLDMLAKVDKNTTEVELKEDGSYDVIKEEAFCISDDDDDDVVPATVNGTASCSSTNGNGLANEAAKKKPADDDIITLSDDDDEELNRGIMNSLNDSFSPGRHTASAELAAQKTPPQQKKKTKDDDIEIITLDDTPPRPVAASANLPMRQMSQQNQMPVGSSPSGMASTQMGMNEGASKTIRDALNKIGEQSANSSTQSSPLVQLHHTTHPLNFAQSSYMNPSSGSQTPTSQYGYSPMINQAPHFQMQNGLIGRNNQMVHMQQHHLQQQQQQQQSPQIMSPSFYAQQQMSNGGAFAYYPPQYPQQQYRQN | not soluble |
| MGSDKIHHHHHHMRDMCSISGIIVKDNQISAKYSIDMMKILKHRGRDNSGLLLDDEVIYFNDFEDVEDLEEEMIGNLSLAHNRLAIVGRYGVQPIPNEDETIWLVCNGEIYNYIELREYLKQNHEFRTDSDNEVIIHLYEEEKLEELDGDYAFAIYDKSKNVVRLARDMFGVKPLFYVDRDKYFAFASERKALWHLLINIDGCERDLDELNSKIKTLKPNSQLIYYLDDNRFEIIEGFKKLELNYMKERSYEEAKEYLDRALKNSVLKRVRGLDKVGIICSGGVDSSLIAKLASLYCEVILYAVGTENSEDLIYAERLAKDLNLKLRKKIISEEEYEEYVFKVAKAIDEVDLMKIGVGIPIYVASEMANEDGLKVVLSGQGADELFGGYARHERIYRERGEEELKKELLKDVYNLYKVNLERDDHCTMANGVELRVPFLDEEVVEIALSIPIEYKMSELSNRPYAESNISLKSEPINGLKNTNLNIKCVRSVRKKILRDVASQYLPDYIAYRPKKAAQYGSGGEKMIYKVAKKYGFSKKRINEFLDMLKRKIVSEF | not soluble |
| MRKAHIMGIEGVGMSALARLLMAEGVAVTGCDLAPGPRARRLGVPVHHGHDPGHLADEDTLVVPTPVPPDHPEVVEARKRGLRVLRRMELLAHFLAQRPSAGVTGTHGKTTTTGMLAAILLEAGLDPWVFLGGELALLPGNARPGRGPRVAEVDESDPLFREVRVSVAVATNLEADHVAPRGERAPNYHESLEALKEAMRGFLAGAKTVVVPAMDPGLLALTEGLPRRLFGPGGEVWAEAVDLSPSGASFRLVHREGPLGEVHLRVPGRHNVHNALAAALAALALGASPEAISRGLSRFPGVGRRFERVGEVGGAWVVDDYAHHPTEVQATLEAALLSGRRVRVFFQPHRLLRTQELWEAFAQALKGAHEVVVLPVYTAGERGRESPEALSDRIAKRLEDLGRPARRMDKEEALAYARATARPEDLLLFMGAGDVTLLARRLVHEG | soluble |
| MGSDKIHHHHHHMNEDYQKTIEFHGHECPGVTIGYRVSKYVLDHYERSEDEQLVAIVENNSCSIDGIQQMLGCTFGKGNLKFKDNGKHVYTFYSRGNDKALRIYLKYNLAEKVGNFNKKFNEGTLTAEDEKQMFERRKEAIKHLMEAPEEELFDVQWVEIEEPKKARLYPSLTCENCGETFMEIKGRTIDGKIVCKECFQKLVH | not soluble |
| MGSDKIHHHHHHMSDSIYSIGTQGQPWTDEDKDLWLSKQVIKRSYQDEVLSKFESVTSSFDMIQYGSLSIDESRYPLYAMRSKNWQSKNKTVLVTGGVHGYETSGVQGAIRFLETSAKDFSQRFNIIVVPCVSPWGYETINRWNNEAIDPNRSFYLDSPAQESAALMSFINELDVNIAMHIDLHETTDTDNSEFRPALAARDAIEQKNWNIPDGFYLVGDSTKPAADFQGAINQAVAKVTHIAPEDSNGKLIGVDIEQFGVINYAGRELGLCMGLTDAPYVTTTEVYPDSPLVDDENCITAQVAAISAAITFI | not soluble |
